This note sets out measurements from patent US20150094271A1 (SAMSUNG ELECTRONICS, published 2015).

No end group written: not given here.

B1: HDMXNTD (N-terminal domain of HDMX, amino acid residues 1 to 132 of NP-001191100) (other, human, UniProt O15151 1-132, looked up)
chain: MTSFSTSAQCSTSDSACRISPGQINQVRPKLPLLKILHAAGAQGEMFTVKEVMHYLGQYIMVKQLYDQQEQHMVYCGGDLLGELLGRQSFSVKDPSPLYDMLRKNLVTLATATTDAAQTLALAQDHSMDIPS
notes: range 1-132; also called HDM4
B2: His6-HDM2NTD (other, human)
chain: HHHHHHMCNTNMSVPTDGAVTTSQIPASEQETLVRPKPLLLKLLKSVGAQKDTYTMKEVLFYLGQYIMTKRLYDEKQQHIVYCSNDLLGDLFGVPSFSVKEHRKIYTMIYRNLVVVNQQESSDSGTSVSEN
notes: range 1-125; Tag placed N-terminally by its name only
B3: GST-p53LZ2 (leucine zipper variant p53LZ2, inventive, tagged with GST) (designed binder)
chain: RMKQLEDKVGELLFSNYWLELEVARLKKLV
modifications: not fully specified (N-terminus); also: parallel homodimer, GST junction linker letters not given here
notes: not shown: GST carrier (pGEX-4T3 vector) and its junction linker
B4: His6-HDMXNTD (other, human)
chain: HHHHHHMTSFSTSAQCSTSDSACRISPGQINQVRPKLPLLKILHAAGAQGEMFTVKEVMHYLGQYIMVKQLYDQQEQHMVYCGGDLLGELLGRQSFSVKDPSPLYDMLRKNLVTLATATTDAAQTLALAQDHSMDIPS
notes: range 1-132; Tag placed N-terminally by its name only
B5: HDM2NTD (N-terminal domain of HDM2, amino acids 1 to 125 of NP-002383) (other, human, UniProt Q00987 1-125, looked up)
chain: MCNTNMSVPTDGAVTTSQIPASEQETLVRPKPLLLKLLKSVGAQKDTYTMKEVLFYLGQYIMTKRLYDEKQQHIVYCSNDLLGDLFGVPSFSVKEHRKIYTMIYRNLVVVNQQESSDSGTSVSEN
notes: range 1-125

The target in experiment [1] is T1, GST (UniProt P08515 1-218 = GST).
T1 construct: Negative control in the pull-down; also called glutathione S-transferase tag alone (control)
Description: ELISA, HDMXNTD coated at 20 µg/ml, HRP anti-GST antibody, absorbance at 450 nm. As to the method: (§1) HDM2 or HDMX was diluted to a concentration of 20 μg/ml in a coating buffer (pH 9.6; 0.05M carbonate-bicarbonate buffer, pH 9.6 (Sigma-Aldrich)), applied to 96-well plates (Nunc, Maxisorp) and incubated overnight at 4° C. Then, the plates were treated with 300 μl of 3% skim milk w/PBS-T (room temperature, 3 hrs) to block the binding of other proteins. The 96-well plates were washed with 200 μL of PBS-T before each well was treated with serial dilutions of 0, 50, 100, 200, 400, 800, 1200, 1600, 2400, 3200, 4800, and 6400 nM of GST-WT p53, GST-p53LZ1, GST-p53LZ2, GST, pDIQ, and pMI.
(§2) After one hour of incubation, the plates were washed three times with 300 μL of PBS-T, and incubated at room temperature for 1 hr with 100 μL of an HRP conjugated-anti-GST antibody (Abcam, 1:2000). Thereafter, treatment with TMB substrate (Pierce, 100 μL) for 5 min developed a color. A stop solution (Pierce, 100 μL) was added, followed by reading absorbance at 450 nm on microwell reader (Molecular Device, Model: 340PC384).
In general terms: An ELISA detects its analyte on a solid surface through an enzyme-linked reagent.

In experiment [2] the target is T1, GST. Kind of experiment: GST pull-down on glutathione resin, 12% SDS-PAGE of the eluate.
Experiment [3] has as its target B5. Kind of experiment: ELISA, HDM2NTD coated at 20 µg/ml, HRP anti-GST antibody, absorbance at 450 nm. The procedure: as §1, §2
Experiment [4] deals with B1. Description: ELISA, HDMXNTD coated at 20 µg/ml, HRP anti-GST antibody, absorbance at 450 nm. As to the method: as §1, §2
In a further experiment the target is T2, full-length HDM2 (human, UniProt Q00987 1-491).
T2 construct: mature
Kind of experiment: ELISA, full-length HDM2 coated at 20 µg/ml, HRP anti-GST antibody, absorbance at 450 nm. As to the method: as §1, §2

Experiment [5] has as its target B1. Description: ITC, p53LZ2 with HDMXNTD. (In general: In ITC the heat of successive injections is recorded.)
The target of experiment [6] is B1. Kind of experiment: ITC (FIG. 6).
Experiment [7] deals with B5. Kind of experiment: ITC, 0.5 mM p53LZ2 injected into 0.03 mM HDM2NTD, PBS pH 7.4, 18 °C. The procedure: Meanwhile, the binding of p53LZ2 to HDM2 and HDMX was evaluated by ITC (isothermal titration calorimetry).
In experiment [8] the target is T1, GST. Kind of experiment: ELISA, HDM2NTD coated at 20 µg/ml, HRP anti-GST antibody, absorbance at 450 nm. As to the method: as §1, §2

Usually EC50 (read off the curve) stands for the concentration giving half of the maximal effect. The low end stands for a more potent agent, the high end for a less potent agent. A word on the Kd: it is the concentration at which binding is half-saturated. Lower therefore signals tighter binding.

T1 sequence (P08515 whole entry): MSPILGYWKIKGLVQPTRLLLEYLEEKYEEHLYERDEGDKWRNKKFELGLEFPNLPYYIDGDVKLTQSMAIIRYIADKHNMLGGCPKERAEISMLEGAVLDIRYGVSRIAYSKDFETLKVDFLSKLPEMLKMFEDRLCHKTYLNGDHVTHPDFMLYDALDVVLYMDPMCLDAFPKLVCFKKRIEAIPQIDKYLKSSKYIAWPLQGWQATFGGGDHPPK

Consider B1, for which the binding result with GST [1] is reported as “no binding (tested: 6400 nM)”.

Take B2: in the experiment with GST [2], the binding result is recorded as “no binding”.

In the case of B3, the concentration giving a half-maximal response (EC50 (read off the curve)) in experiment [3] is roughly 200 nM; in [4], roughly 200 nM; with full-length HDM2, roughly 300 nM.

Take RMKQLEDKVGELLFSNYWLELEVARLKKLV (designed binder) [leucine zipper variant p53LZ2]: in [5], the “-TΔS” value amounted to 1.16 kcal/mol, the N was determined as 0.65 and the ΔH was -9.66 kcal/mol. This molecule also yielded a Kd in [6] of roughly 80 nM. Besides, in experiment [7], the “-TΔS” value stood at 1.48 kcal/mol, the equilibrium dissociation constant (Kd) worked out at 17.8 nM, the N is 0.65 and the ΔH was -11.8 kcal/mol.

Take B4: the binding result in the experiment with GST [2] is “no binding”.

As for B5, the binding result in the experiment with GST [8] was “no binding (tested: 6400 nM)”.
